Data published in patent publication US20210017226A1 (PEPTION, published 2021).
Ends that are not written are not given here.

T1: PTD10 (Hs-PDGF-B_136-145), synthetic peptide IEIVRKKPIFC (human)
T1 peptide: IEIVRKKPIFC

T2: PTD8 (Ec-AP_159-168), synthetic peptide LVAHVTSRKC (Escherichia coli)
T2 construct: also called control peptide (unrelated) in the Cas9 blots
T2 peptide: LVAHVTSRKC

T3: purified horseradish peroxidase (HRP) protein (horseradish, UniProt P00433 31-338)
T3 sequence (looked up): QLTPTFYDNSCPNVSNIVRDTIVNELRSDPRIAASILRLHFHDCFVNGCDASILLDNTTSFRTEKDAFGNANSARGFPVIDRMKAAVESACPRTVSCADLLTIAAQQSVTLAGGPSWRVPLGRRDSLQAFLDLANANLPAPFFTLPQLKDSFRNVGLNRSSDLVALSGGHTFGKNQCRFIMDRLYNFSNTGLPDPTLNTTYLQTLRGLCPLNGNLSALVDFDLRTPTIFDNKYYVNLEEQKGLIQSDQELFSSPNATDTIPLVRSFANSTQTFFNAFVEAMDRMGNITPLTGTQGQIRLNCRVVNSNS

B1: V5C2-L-HRPC2, purified polypeptide with two CAAP box dimer arms designed to interact with V5 epitope and HRP (designed binder)
chain: MSRKEARELCYPENGLEALIRSGGGSGGGSGGGSYYLRKRILCYPENQVLERSNEGSGSKLLEHHHHHH
B2: PTD20 (2GS6H), synthetic linker-His-tag oligopeptide (peptide)
peptide: GSGSHHHHHH
notes: also called linker-His-tag only; negative control
B3: C9-813-CAA2 (dimer, parallel-linker-antiparallel), recombinant CAAP oligopeptide-AP fusion protein (designed binder, not shown: small tags and cut ends; large carriers)
chain: MHHHHHHELLLSVEVQQLCYPENLEYLFIEKL
notes: also called rAb C9-813-CAA2; dimer construct

How the values were obtained:
[1] = target: T1, PTD10 (Hs-PDGF-B_136-145), synthetic …; assay: dot blot, anti-6His Ab-HRP detection
[2] = target: T4, Cas9 protein without any tag (no tag), recombinant Streptococcus pyogenes Cas9 (Streptococcus pyogenes, UniProt Q99ZW2 1-1368); assay: dot blot (non-denatured) and western blot (denatured), anti-6His Ab-HRP detection
T4 construct: also called Cas9 (no tag); tagless Cas9
T4 sequence (Q99ZW2 whole entry): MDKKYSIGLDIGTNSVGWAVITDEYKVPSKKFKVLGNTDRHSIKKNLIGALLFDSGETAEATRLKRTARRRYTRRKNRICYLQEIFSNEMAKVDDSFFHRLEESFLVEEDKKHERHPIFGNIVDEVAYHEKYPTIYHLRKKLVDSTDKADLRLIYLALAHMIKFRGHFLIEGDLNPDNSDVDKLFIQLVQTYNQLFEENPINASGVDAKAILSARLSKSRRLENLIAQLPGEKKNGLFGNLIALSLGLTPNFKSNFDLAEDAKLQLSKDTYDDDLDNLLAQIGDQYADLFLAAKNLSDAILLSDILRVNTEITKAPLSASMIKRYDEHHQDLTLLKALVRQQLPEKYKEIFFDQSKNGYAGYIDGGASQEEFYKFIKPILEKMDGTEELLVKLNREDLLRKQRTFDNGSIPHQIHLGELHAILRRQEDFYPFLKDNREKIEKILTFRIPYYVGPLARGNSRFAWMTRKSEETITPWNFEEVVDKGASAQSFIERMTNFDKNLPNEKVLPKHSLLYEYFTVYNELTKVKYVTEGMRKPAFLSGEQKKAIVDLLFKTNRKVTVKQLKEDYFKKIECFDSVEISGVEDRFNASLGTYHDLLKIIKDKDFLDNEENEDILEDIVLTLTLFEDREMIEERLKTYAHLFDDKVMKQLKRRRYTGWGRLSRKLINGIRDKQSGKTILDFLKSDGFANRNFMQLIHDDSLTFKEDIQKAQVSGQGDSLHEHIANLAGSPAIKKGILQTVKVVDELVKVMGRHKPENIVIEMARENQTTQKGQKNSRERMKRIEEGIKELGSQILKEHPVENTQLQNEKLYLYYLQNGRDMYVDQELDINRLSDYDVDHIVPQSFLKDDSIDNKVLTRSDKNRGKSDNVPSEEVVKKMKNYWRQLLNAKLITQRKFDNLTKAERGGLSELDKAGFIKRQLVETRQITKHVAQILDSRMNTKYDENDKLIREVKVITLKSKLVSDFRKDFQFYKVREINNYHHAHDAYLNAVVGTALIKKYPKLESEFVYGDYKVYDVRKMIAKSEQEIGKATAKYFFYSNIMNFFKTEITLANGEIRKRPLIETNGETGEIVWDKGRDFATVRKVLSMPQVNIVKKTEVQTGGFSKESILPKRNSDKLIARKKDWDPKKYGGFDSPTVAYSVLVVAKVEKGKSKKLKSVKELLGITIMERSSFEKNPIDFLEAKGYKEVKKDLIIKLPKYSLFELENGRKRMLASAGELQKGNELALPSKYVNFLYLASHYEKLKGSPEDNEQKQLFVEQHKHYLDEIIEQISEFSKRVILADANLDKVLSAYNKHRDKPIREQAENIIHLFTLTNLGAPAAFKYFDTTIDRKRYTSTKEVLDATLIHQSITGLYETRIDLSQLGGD

[3] = target: T2, PTD8 (Ec-AP_159-168), synthetic peptide …; assay: dot blot, peptide spotted on NC membrane, anti-6His Ab-HRP detection
[4] = target: T2, PTD8 (Ec-AP_159-168), synthetic peptide …; assay: dot blot, anti-6His Ab-HRP detection
[5] = target: T3, purified horseradish peroxidase (HRP) …; assay: dot blot, HRP captured by V5C2-L-HRPC2 bound to immobilized PTD19, chromogenic substrate
[6] = target: T2, PTD8 (Ec-AP_159-168), synthetic peptide …; assay: dot blot, AP fusion as 1st Ab, NBT/BCIP

Row | Binder | binding result [1] | binding result [4] | other results
1 | DLDYAQLRDKCYPENEDRLQSYDLDGSGSHHHHHH (designed binder, also: dimer, parallel and antiparallel, also called Anti-PDGF sAb) | binds | – | –
2 | LLQVDVILLCYPENLEQIKIRLFGSGSHHHHHH (designed binder, also: dimer, also called sAb dimer; CCAAP sAb dimer) [PTD14 (Sp-C9_CAA813-821PAPH), synthetic His-tagged CAAP oligopeptide dimer] | – | – | binding result [2]: binds; binding result [3]: no binding
3 | EYRLYLRALCYPENLSRAYLSYEGSGSHHHHHH (designed binder, also: dimer, parallel and antiparallel) | – | binds | –
4 | B1 | – | – | binding result [5]: binds
5 | B2 | no binding | no binding | –
6 | B3 | – | – | binding result [6]: no binding
